Measurements as given in paper doi:10.1101/2020.04.28.065904.

Target: aa defensin C (mature Aedes albopictus defensin C peptide) (Aedes albopictus)
Assay: ELISA

JEV E protein (recombinant) (natural protein)
absorbance: 0.95

JEV ED III protein (ED III domain of the E protein, recombinant) (domain or fragment)
absorbance: 1.17
